Measurements as given in patent US20240317852A1 (Molecular Partners, published 2024).
Where a chain is given by its changes, count along the chain named.

T1: biotinylated splice variant of the extracellular domain of human CD33 (residues 140-259, constant domain … (human, UniProt P20138 140-259, biotinylated with BirA-GST (Avi tag)))
T1 construct: Bought from Evitria; a second Fc chain may be present, not described; also called splice variant CD33; spliced variant; not shown: C-terminal Fc tag and Avi tag
T1 chain: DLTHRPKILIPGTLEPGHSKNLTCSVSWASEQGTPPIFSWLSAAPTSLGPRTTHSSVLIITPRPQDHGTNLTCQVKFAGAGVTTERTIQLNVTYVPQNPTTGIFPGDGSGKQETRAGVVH

B1: DARPin® protein #16 in TCE format (formatted with a CD3-specific ankyrin repeat domain) (designed binder)
chain: MRGSHHHHHHGSDLGKKLLQAARAGQLDEVRELLKAGADVNAKDHQGETPLHLAASQGHLEIVEVLLKAGADVNAKDLAGYTPLHLAAWTGHLEIVEVLLKAGADVNAKDQWGRTPLHIAAASGHLEIVEVLLKAGADVNAQDKSGKTPADLAARAGHQDIAEVLQKAA
notes: Crude extract HTRF construct also carried a C-terminal Flag tag; not shown: which one,
B2: DARPin® protein #7 in TCE format (formatted with a CD3-specific ankyrin repeat domain) (designed binder)
chain: MRGSHHHHHHGSDLGLKLLRAAYDGQDDEVRILLAAGADVNAKDWQGFTPLHYAAVLGHLEIVEVLLKAGADVNAKDQEGATPLHLAALHGHLEIVEVLLKAGADVNAQDESGWTPADLAAKWGHEDIAEVLQKAA
notes: as for B1
B3: DARPin® protein #1 in TCE format (formatted with a CD3-specific ankyrin repeat domain) (designed binder)
chain: MRGSHHHHHHGSDLGWKLLLAASRGQDDEVRILLAAGADVNAKDIDEGYTPLHIAAYYGHLEIVEVLLKAGADVNAKDRYGKTPLHLAAISGHEDIAEVLLKAGADVNAQDDKGDTPADLAADYGHEDIAEVLQKAA
notes: not shown: which one,
B4: DARPin® protein #3 in TCE format (formatted with a CD3-specific ankyrin repeat domain) (designed binder)
chain: MRGSHHHHHHGSDLGVKLLRAAFHGQDDEVRILLAAGADVNAKDTDGETPLHYAAQFGHLEIVEVLLKAGADVNAKDAYGATPLHWAAWHGHLEIVEVLLKAGADVNAQDVSGATPADLAAKVGHEDIAEVLQKAA
notes: as for B1
B5: DARPin® protein #8 in TCE format (formatted with a CD3-specific ankyrin repeat domain) (designed binder)
chain: MRGSHHHHHHGSDLGWKLLSAATLGQDDEVRILLAAGADVNAKDEWGKTPLHWAASTGHLEIVEVLLKAGADVNAKDLWGHTPLHEAAAKGHLEIVEVLLKAGADGNAQDNIGDTPADLAAYQGHEDIAEVLQKAA
notes: as for B1
B6: DARPin® protein #15 in TCE format (formatted with a CD3-specific ankyrin repeat domain) (designed binder)
chain: MRGSHHHHHHGSDLGKKLLQAARAGQLDEVRELLKAGADVNAKDLIGWTPLHLAAHYGHLEIVEVLLKAGADVNAKDAQGWTPLHIAAWEGHLEIVEVLLKAGADVNAKDWTGETPLHLAAFEGHLEIVEVLLKAGADVNAQDKSGKTPADLAARAGHQDIAEVLQKAA
notes: as for B1
B7: DARPin® protein #5 in TCE format (formatted with a CD3-specific ankyrin repeat domain) (designed binder)
chain: B6 chain with G15S, L45Q, W48Q, H56Q, Y57S, A78T, Q79E, I86V, F122Y, E123Q
notes: as for B1
B8: DARPin® protein #14 in TCE format (formatted with a CD3-specific ankyrin repeat domain) (designed binder)
chain: MRGSHHHHHHGSDLGWKLLNAAIAGQDDEVRILLAAGADVNAKDTEYGWTPLHIAASDGHLEIVEVLLKAGADVNAKDYAGSTPLHAAAFVGHLEIVEVLLKAGADVNAQDHQGQTPADLAAQQGHVDIAEVLQKAA
notes: as for B1
B9: DARPin® protein #1, monovalent CD33 specific binding protein (designed binder)
chain: B3 chain
notes: Crude extract in the HTRF; also called DARPin® protein #91 [sic]
B10: DARPin® protein #14, monovalent CD33 specific binding protein (designed binder)
chain: B8 chain
notes: Crude extract in the HTRF
B11: DARPin® protein #9 in TCE format (formatted with a CD3-specific ankyrin repeat domain) (designed binder)
chain: MRGSHHHHHHGSDLGYKLLWAASAGQDDEVRILLAAGADVNAKDKDGATPLHFAAAKGHLEIVEVLLKAGADVNAKDNRGATPLHYVAAASGHLEIVEVLLKAGADVNAQDEWGNTPADLAAIYGHGDIAEVLQKAA
notes: as for B1

Molecular target: T1, biotinylated splice variant of the …
Assay: SPR (ProteOn XPR36), biotinylated splice variant CD33 on NLC chip

Binder	binding result
B1	no binding (tested: 50 nM)
B2	no binding (tested: 50 nM)
B3	no binding (tested: 50 nM)
B4	no binding (tested: 50 nM)
B5	no binding (tested: 50 nM)
B6	no binding (tested: 50 nM)
B7	no binding (tested: 50 nM)
B8	no binding (tested: 50 nM)

Molecular target: T1, biotinylated splice variant of the …
Assay: HTRF, 6 nM biotinylated hCD33-C2-Fc(kih)-Avi, Strep-Tb and anti-6His-d2
Method: First, a binding experiment has been performed against full-length (V/C2 domains) and truncated CD33 (C2 domain) by HTRF, using crude extracts of the three CD33-specific binding proteins DARPin® protein #1. DARPin® protein #9 and DARPin® protein #14. Binding to the CD33 target was detected using Strep-Tb and anti-His-D2 HTRF reagents. In brief, crude extract of DARPi® protein #1, DARPin® protein #9 and DARPin® protein #14 was diluted 1:250 (final 1:1000) with PBSTB and added into a 384-well plate (PerkinElmer, 6008280). Then, the biotinylated target_hCD33-Fc(kih)-Avi (full-length CD33; purchased from Evitria) and hCD33-C2-Fc(kih)-Avi (truncated CD33; purchased from Evitria) respectively was diluted to 8 nM (final 6 nM) and mixed with the HTRF reagents Mab Anti-6His-d2 and Strep-Tb, both 1:200 diluted (final 1:400). As depicted in FIG. 5, all three CD33 specific binding proteins DARPin® protein #1. DARPin® protein #9 and DARPin® protein #14 show binding to the full-length CD33 but only DARPin® protein #9 binds to the truncated CD33 target.

Binder	binding result
B9	no binding
B10	no binding

Molecular target: T1, biotinylated splice variant of the …
Assay: SPR (ProteOn XPR36), biotinylated splice variant CD33 on NLC chip, DARPin at 50 nM, single trace

Binder	Kd
B11	1.9 nM
